1 molecule from publication PMC12444171, “Chromatin remodeler BRD9 represses transcription of PPARα target genes, including CPT1A to suppress lipid metabolism” (Journal of Lipid Research, 2025) can be followed below.

This assay has as its target T1, BRD7-His (bromodomain-containing protein 7 with His tag) (human, UniProt Q9NPI1 1-651).
T1 construct: Bromodomain-containing protein 7, human; source: HEK293T, transfected, in lysate; for the pull-down purified from HEK293T cell lysates
T1 sequence (looked up): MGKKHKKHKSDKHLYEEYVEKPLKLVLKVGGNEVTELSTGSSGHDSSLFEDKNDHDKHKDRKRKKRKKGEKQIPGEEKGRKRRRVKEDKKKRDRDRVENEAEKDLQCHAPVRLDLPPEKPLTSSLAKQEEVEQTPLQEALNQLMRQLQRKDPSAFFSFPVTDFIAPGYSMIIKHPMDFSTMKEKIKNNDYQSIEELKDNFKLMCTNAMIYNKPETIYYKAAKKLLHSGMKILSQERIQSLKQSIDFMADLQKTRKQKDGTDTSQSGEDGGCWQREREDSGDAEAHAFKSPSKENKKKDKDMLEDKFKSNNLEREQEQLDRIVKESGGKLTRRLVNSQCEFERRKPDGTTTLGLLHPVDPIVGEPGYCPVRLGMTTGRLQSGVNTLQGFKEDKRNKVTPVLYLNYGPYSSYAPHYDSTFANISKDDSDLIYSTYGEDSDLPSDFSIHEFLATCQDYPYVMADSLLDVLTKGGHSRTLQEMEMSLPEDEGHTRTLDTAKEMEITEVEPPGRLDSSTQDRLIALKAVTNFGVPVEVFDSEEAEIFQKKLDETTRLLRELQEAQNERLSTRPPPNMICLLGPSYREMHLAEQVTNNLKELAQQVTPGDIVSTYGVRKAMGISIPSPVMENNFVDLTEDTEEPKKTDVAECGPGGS
Description: co-IP; HEK293T cells co-transfected with FLAG-PPARα and BRD7-His or BRD9-His; lysate (0.3 M NaCl, 0.5% NP-40, pH 8.0) on anti-His tag antibody-Dynabeads Protein G, 2 h at room temperature; Western blot; in Fig. 5C the cells were treated with 30 μM WY-14643 and/or 40 μM BI-9564 for 48 h (interaction markedly attenuated). As to conditions: partners not purified.

B1: FLAG-PPARα (peroxisome proliferator-activated receptor α with 3×FLAG) (natural protein, human, UniProt Q07869 1-468, looked up)
chain: MVDTESPLCPLSPLEAGDLESPLSEEFLQEMGNIQEISQSIGEDSSGSFGFTEYQYLGSCPGSDGSVITDTLSPASSPSSVTYPVVPGSVDESPSGALNIECRICGDKASGYHYGVHACEGCKGFFRRTIRLKLVYDKCDRSCKIQKKNRNKCQYCRFHKCLSVGMSHNAIRFGRMPRSEKAKLKAEILTCEHDIEDSETADLKSLAKRIYEAYLKNFNMNKVKARVILSGKASNNPPFVIHDMETLCMAEKTLVAKLVANGIQNKEAEVRIFHCCQCTSVETVTELTEFAKAIPGFANLDLNDQVTLLKYGVYEAIFAMLSSVMNKDGMLVAYGNGFITREFLKSLRKPFCDIMEPKFDFAMKFNALELDDSDISLFVAAIICCGDRPGLLNVGHIEKMQEGIVHVLRLHLQSNHPDDIFLFPKLLQKMADLRQLVTEHAQLVQIIKKTESDAALHPLLQEIYRDMY
modifications: acetylated lysine residue(s), positions not given
notes: the sites are not mapped; source: HEK293T, transfected (pcDNA3.1), in lysate; for the pull-down captured from lysate on anti-FLAG antibody-Dynabeads Protein G and washed; not shown: 3×FLAG, N-terminal, kept
As for B1, the binding result is given as “binds”.
